Source: patent US20250236644A1, “De Novo Designed Stimulus-responsive Two-state Hinge Proteins” (University of Washington, priority 2024, published 2025)
Values belong to the molecule of their own block, whether it stands above or below them.

Columns and labels:
TAMRA-cs269B = experiment: FP titration and kinetics, hinge vs TAMRA-cs269B; type: binding; details: Effector TAMRA-cs269B; method FP
Method: (§1) All FP measurements were performed at 25° C. in 96-well plates (Corning 3686) using a Synergy Neo2™ plate reader and a 530/590 nm filter cube. The buffer for all FP measurements was 20 mM Tris-HCl, 100 mM NaCl, 0.05% v/v TWEEN20 at pH 8. Titrations were carried out in 96-well format, with 4 replicates per plate and 24 data points per titration (23 steps of two-fold serial dilution of hinges in the presence of TAMRA-labeled peptide at a constant concentration between 0.1 nM and 1 nM) with a final sample volume of 80 μl per well. Titration plates were incubated overnight at room temperature before measuring to ensure complete equilibration. The polarization signal S (as calculated by the Neo2™ software) was fitted to the equation
(§2) where fAB is the fraction of peptide that is bound, Atot is the absolute hinge concentration, Btot is the absolute peptide concentration, S0 is the baseline polarization of free peptide, and S1 is the change in polarization upon complex formation.
(§3) Fitting was performed using the scipy.optimize.curve_fit python function (53). Uncertainties for KD values are standard deviation errors calculated from the covariance matrix of the fits. In cases where the fitted KD was lower than the concentration of the labeled peptide Btot, we report the KD as KD<Btot. […]

[1] = test system: original peptides fused to superfolder green fluorescent protein (sfGFP); experiment: SEC binding experiments with original peptides fused to sfGFP; details: FIG. 17C
Method: (§4) Individual hinge and sfGFP-fused peptides or 3hb were diluted in 20 mM Tris pH 8, 100 mM NaCl and mixed at approximately 1:1 concentrations. 0.5-1 mL of the resulting samples were injected onto a Superdex™ 200 Increase 10/300 GL columns and the absorbance at 230 nm was used as a readout for binding. For sfGFP-fused peptides, 473 nm was also used as readout. Mixtures were at a total concentration of 2. μM or higher.

cs221B = experiment: FRET titration and kinetics, labeled extended hinge vs peptide cs221B; type: binding
Method: (§5) AlexaFluor™ 555 C2 maleimide (donor) and AlexaFluor™ 647 C2 maleimide (acceptor) were purchased from ThermoFisherScientific. Stock solutions at −5 mM were prepared by dissolving 1 mg of each dye in 200 μl DMSO. Hinge variants containing two cysteines were expressed and purified as described above with the modification that 0.5 mM TCEP was used during lysis, IMAC and SEC, and that the buffer for initial SEC contained 20 mM sodium phosphate (PH 7.0) instead of Tris-HCl. After SEC, 500 μl hinge at a concentration of 50 μM was incubated with 500 μM of a single dye for controls or 250 μM each of two dyes. […]
(§6) The buffer for all FRET measurements was 20 mM Tris-HCl, 100 mM NaCl, 0.05% v/v TWEEN®20 at pH 8. Fluorescence spectra were recorded at room temperature using a FluoroMax™ spectrometer in a 1 cm×1 cm cuvette at a sample volume of 3 ml. FRET titrations and kinetics measurements were performed at 25° C. in 96-well plates (Corning 3686) using a Synergy Neo2™ plate reader. […]
(§7) Titrations were carried out in 96-well format, with 4 replicates per plate and 24 data points per titration (23 steps of two-fold serial dilution of effector (peptide or 3hb) in the presence of double-labeled hinge at a constant concentration of 2 nM) with a final sample volume of 80 μl per well. […] The raw fluorescence signal (donor emission upon acceptor excitation) was fitted to the equation […]

3hb21 = experiment: FRET titration and kinetics, labeled extended hinge vs 3hb21; type: binding
Method: (§8) AlexaFluor™ 555 C2 maleimide (donor) and AlexaFluor™ 647 C2 maleimide (acceptor) were purchased from ThermoFisherScientific. Stock solutions at −5 mM were prepared by dissolving 1 mg of each dye in 200 μl DMSO. Hinge variants containing two cysteines were expressed and purified as described above with the modification that 0.5 mM TCEP was used during lysis, IMAC and SEC, and that the buffer for initial SEC contained 20 mM sodium phosphate (PH 7.0) instead of Tris-HCl. After SEC, 500 μl hinge at a concentration of 50 μM was incubated with 500 μM of a single dye for controls or 250 μM each of two dyes. After 2 h incubation at room temperature, samples were purified by SEC using a buffer containing 20 mM Tris-HCl and 100 mM NaCl at pH 8.
(§9) The buffer for all FRET measurements was 20 mM Tris-HCl, 100 mM NaCl, 0.05% v/v TWEEN®20 at pH 8. Fluorescence spectra were recorded at room temperature using a FluoroMax™ spectrometer in a 1 cm×1 cm cuvette at a sample volume of 3 ml. FRET titrations and kinetics measurements were performed at 25° C. in 96-well plates (Corning 3686) using a Synergy Neo2™ plate reader. Excitation wavelength was 520 nm and emission wavelength was 665 nm (except for donor-donor controls for which emission wavelength was 555 nm, see FIG. 13B right column).
(§10) Titrations were carried out in 96-well format, with 4 replicates per plate and 24 data points per titration (23 steps of two-fold serial dilution of effector (peptide or 3hb) in the presence of double-labeled hinge at a constant concentration of 2 nM) with a final sample volume of 80 μl per well. […] The raw fluorescence signal (donor emission upon acceptor excitation) was fitted to the equation
(§11) Fitting was performed using the scipy.optimize.curve_fit python function (53). Uncertainties for KD values are standard deviation errors calculated from the covariance matrix of the fits. […]
(§12) For FRET kinetics experiments a 2× hinge solution and 8 different 2× effector solutions at different concentrations were prepared separately. […] Fluorescence signals S at each concentration were fitted individually to the equation […]

off-target peptides = experiment: Pairwise FRET titrations of labeled hinges with off-target peptides; type: binding; details: 2 nM labeled hinge; off-target peptides at μM concentrations; flat lines
Method: A critical feature of two-state switches in biology and technology is the coupling between the state control mechanism and the populations of the two states. To quantitatively investigate the thermodynamics and kinetics of the effector induced switching between the two states of our designed hinges, we used Forster resonance energy transfer (FRET). […]
as §6, §10

cs201B = experiment: FRET titration and kinetics, labeled extended hinge vs peptide cs201B; type: binding
Method: as §8, §9, §10, §11, §12

TAMRA-cs094B = experiment: FP titration and kinetics, hinge vs TAMRA-cs094B; type: binding; details: Effector TAMRA-cs094B; method FP
Method: as §1, §2, §3

TAMRA-cs074B = experiment: Fluorescence polarization (FP) titration and kinetics, hinge vs TAMRA-cs074B; type: binding; details: Effector TAMRA-cs074B; method FP
Method: as §1, §2
Fitting was performed using the scipy.optimize.curve_fit python function (53). Uncertainties for KD values are standard deviation errors calculated from the covariance matrix of the fits. In cases where the fitted KD was lower than the concentration of the labeled peptide Btot, we report the KD as KD<Btot.
For FP kinetics experiments a 2× peptide solution and 8 different 2× hinge solutions at different concentrations were prepared separately. 40 μl of each hinge solution were mixed with 40 μl peptide solution using a multichannel pipet and the measurement was started immediately after mixing. Polarization signals S at each concentration were fitted individually to the equation
where S0 is the amplitude, S1 is the polarization at equilibrium, kapp is the apparent rate constant, t is the time after start of the measurement, and t0 is the dead time between mixing and start of the measurement. For each hinge-peptide pair, the apparent rate constants for 8 different concentrations are fitted to the equation
where koff and kon are observed off- and on rates and Atot is the absolute hinge concentration.

three-helix bundles = experiment: SEC binding experiments with three-helix bundles; details: FIG. 16A
Method: as §4

cs074B = experiment: FRET titration and kinetics, labeled extended hinge vs peptide cs074B; type: binding; details: Effector cs074B; method FRET
Method: as §5, §6, §7

3hb05 = experiment: FRET titration, labeled extended hinge vs 3hb05; type: binding
Method: as §5, §6, §7

Chain of 3hb21 (as listed by the source): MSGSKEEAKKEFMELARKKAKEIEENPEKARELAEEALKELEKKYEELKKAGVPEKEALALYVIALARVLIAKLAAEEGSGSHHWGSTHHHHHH
Chain of cs201B (as listed by the source): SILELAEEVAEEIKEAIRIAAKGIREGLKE
Chain of TAMRA-cs074B (as listed by the source): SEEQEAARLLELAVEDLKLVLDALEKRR
Chain of cs221B (as listed by the source): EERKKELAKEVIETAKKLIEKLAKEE
Chain of 3hb05 (as listed by the source): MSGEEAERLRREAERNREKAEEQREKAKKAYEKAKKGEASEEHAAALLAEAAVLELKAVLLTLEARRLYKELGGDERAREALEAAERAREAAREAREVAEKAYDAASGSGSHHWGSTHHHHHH
Chain of TAMRA-cs094B (as listed by the source): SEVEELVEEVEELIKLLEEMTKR
Chain of TAMRA-cs269B (as listed by the source): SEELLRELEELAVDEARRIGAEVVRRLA

SEC binding experiment with sfGFP-fused original peptide [1]: higher-order peaks
B1: cs269: designed hinge protein, SEQ ID NO:14 (protein)
chain: MSGDEERVRELAERASREAERAVRSGSEESLEEALRNVEELIRKSDSEEARVRVAEAAVRAAAEAAARSGTVEAAAVAVIFTARVLQIVSSSEEAVVRVLAAAAAAAARVAVELGTEEALETALRFVELLVRLADSDEARQRVLRSASESARRSAEESGSERAREVAERFRERIERNQGSGSHHWGSTHHHHHH
kon (TAMRA-cs269B): 2500 M⁻¹ s⁻¹

binding compared with the original peptide cs221B (3hb21; FRET): significantly tighter
KD, times stronger than the KD of the original peptide cs221B (3hb21; FRET titration, 2 nM hinge): at least 20 times
B2: cs221F: extended hinge cs221 for FRET labeling, SEQ ID NO:31 (protein)
chain: MSGEMVEEIEKLAEELAKKTKDCEVKKLAKKAAELAKKSTDEMKKEIVKDALELALRTKDEEVIRLALKAAVLAAESDDEEVKEVVKKALEAALKSKDEEVIRLLLLAAVLAAAAARSGSPEEKLEIAKKALELAMKSKDEEVIRLALLAAVLAARSDDEEVLKIVKKALELAMESKDVEVIRLALEAAVLAARSTDPEKKKCVYEALEKAMESKDEEEIKKELKAAVEKARSTEGSGSHHWGSTHHHHHH
kon (cs221B; Effector cs221B, method FRET): 2600 M⁻¹ s⁻¹
kon (3hb21; Effector 3hb21, method FRET, 5 nM hinge): 13000 M⁻¹ s⁻¹
off-target FRET titration outcome (off-target peptides): no conformational change

B3: cs201F: extended hinge cs201 for FRET labeling, SEQ ID NO:30 (protein)
chain: MSGDEEVQEAVERAEELREEAEELIKKARKTGDPELLRKALEALEEAVRAVEEAICRNPDNDEAVETAVRLARELKKVAEELQERAKKTGDPELLKLALRALEVAVRAVELAIKSNPDNDEAVETAVRLARELKKVAEELQERAKKTGDPELLKLALRALEVAVRAVELAIKRNPDNEEAIKTALRLARELRKVAKELIERARKTGDAELLKKALEAARVAVEAVRLAAEYNKENAEKMAELLVELAELAREVADVLIELAEKTGDPELLKKALEVLEEAVEAVRLAIEYDPDHDEAVETAVRLARELKKVAEELQERAKKTGDPELLKLALRALEVAVRAVELAIKSNPDNEEAVETAKRLAEELRKVAELLEERAKETGDPCLQELAKRAKEVADRARELAKKSNPNNGSGSHHWGSTHHHHHH
reversibility of hinge conformational change (cs201B; 30 nM FRET-labeled hinge, peptide added, then excess unlabeled hinge cs201): fully reversible
kon (cs201B; Effector cs201B, method FRET): 4500 M⁻¹ s⁻¹
off-target FRET titration outcome (off-target peptides): no conformational change

B4: cs094: designed hinge protein, SEQ ID NO:5 (protein)
chain: MSGDEEERLRQEVEKAEKELEKLAKQSTDEEVRKMVREVAKQLRRLAEEAIRQKDDEALRQATEVVKMVQEAVKVAQKTTDQKVILLLLAVALVAIKVAQLAIRSDDTEALRLARIVIRAVQLLVKLVQKTTDPEVRRTALRVAELLAKLAKEAIERNDEEALREASEVVKEVQELVKEAEKSTDEEEIRELLQRAEERIREAQERIREGSGSHHWGSTHHHHHH
kon (TAMRA-cs094B): 9400 M⁻¹ s⁻¹

SEC binding to three-helix bundles (three-helix bundles): clear binding
B5: cs074: de novo designed two-state hinge protein, SEQ ID NO:4 (protein)
chain: MSGDEEVQEAVERAEELREEAEELIKKARKTGDPELLRKALEALKEAVRAVKEAIKRNPDNEEAVKTAVRLARELLKVAEELKERAEKTGDPRLLLLAAEAIAWAIEAVFLAAKASENTEGALEAARAAVKLAEVAKRIAKLLQRDAKKEGDPELLKLALRALELAVRAVELAIKENPDNEEAVETAKRLAEELRKVAELLEERAKETGDPELQELAKRAKEVADRARELAKKSNPNNGSGSHHWGSTHHHHHH
kon (TAMRA-cs074B): 64000 M⁻¹ s⁻¹

off-target binding compared to the on-target interaction for cs074B (cs201B; FRET titration, 2 nM labeled hinge, peptide cs201B): three orders of magnitude weaker
off-target binding compared to the on-target interaction for cs074B (cs221B; FRET titration, 2 nM labeled hinge, peptide cs221B): two orders of magnitude weaker
B6: cs074F: extended hinge cs074 for FRET labeling, SEQ ID NO:29 (protein)
chain: DEEVQEAVERAEELREEAEELIKKARKTGDPELLRKALEALECAVRAVEEAIKRNPDNDEAVETAVRLARELKKVAEELQERAKKTGDPELLKLALRALKVAVRAVKLAIKSNPDNEEAVKTAVRLARELLKVAEELKERAEKTGDPRLLLLAAEAIAWAIEAVFLAAKASENTEGALEAARAAVKLAEVAKRIAKLLQRDAKKEGDPELLKLALRALELAVRAVELAIKENPDNDEAVETAVRLARELKKVAEELQERAKKTGDPELLKLALRALEVAVRAVELAIKSNPDNEEAVETAKRLAEELRKVAELLEERACETGDPELQELAKRAKEVADRARELAKKSNPNNGSHHHHHH
kon (TAMRA-cs074B): 100000 M⁻¹ s⁻¹
kon (cs074B): 170000 M⁻¹ s⁻¹
affinity compared with the original peptide cs074B (3hb05): similar
